Source: patent US20240173426A1 (Regeneron, published 2024)

T1: murine FGFR3b expressed with a C-terminal myc-myc-hexahistidine tag (mFGFR3b.mmH) (mouse)
T1 construct: monomeric; also called REGN3215; monomeric murine FGFR3b
T1 chain: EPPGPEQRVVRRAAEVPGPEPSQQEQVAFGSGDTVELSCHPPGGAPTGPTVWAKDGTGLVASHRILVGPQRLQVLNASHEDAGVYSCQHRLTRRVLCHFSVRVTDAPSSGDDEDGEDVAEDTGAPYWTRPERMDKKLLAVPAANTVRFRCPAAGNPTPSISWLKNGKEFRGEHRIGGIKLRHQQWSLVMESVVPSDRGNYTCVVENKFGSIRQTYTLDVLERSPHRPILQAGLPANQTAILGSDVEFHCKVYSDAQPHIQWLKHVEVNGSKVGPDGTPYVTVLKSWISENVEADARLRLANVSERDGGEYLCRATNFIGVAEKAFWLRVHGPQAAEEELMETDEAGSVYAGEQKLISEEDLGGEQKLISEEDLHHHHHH

T2: human FGFR3b expressed with a C-terminal myc-myc-hexahistidine tag (hFGFR3b.mmH) (human)
T2 construct: monomeric; also called REGN3152; monomeric human FGFR3b
T2 chain: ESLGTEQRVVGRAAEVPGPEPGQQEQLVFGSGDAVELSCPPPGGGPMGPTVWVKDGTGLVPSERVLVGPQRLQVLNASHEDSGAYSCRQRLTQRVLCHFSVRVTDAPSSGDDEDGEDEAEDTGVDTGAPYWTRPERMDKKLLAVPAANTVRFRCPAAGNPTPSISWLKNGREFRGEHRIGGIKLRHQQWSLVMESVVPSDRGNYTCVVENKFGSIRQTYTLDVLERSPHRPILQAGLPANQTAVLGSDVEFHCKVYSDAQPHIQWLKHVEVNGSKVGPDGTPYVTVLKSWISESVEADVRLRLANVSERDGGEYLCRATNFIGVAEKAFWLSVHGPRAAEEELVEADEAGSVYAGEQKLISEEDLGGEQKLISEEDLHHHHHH

T3: cynomolgus FGFR3b expressed with a C-terminal myc-myc-hexahistidine tag (mfFGFR3b.mmH) (cynomolgus)
T3 construct: The name states R357G; also called REGN3521; mf FGFR3b ecto (R357G) (E23-G377;R357G).mmH
T3 chain: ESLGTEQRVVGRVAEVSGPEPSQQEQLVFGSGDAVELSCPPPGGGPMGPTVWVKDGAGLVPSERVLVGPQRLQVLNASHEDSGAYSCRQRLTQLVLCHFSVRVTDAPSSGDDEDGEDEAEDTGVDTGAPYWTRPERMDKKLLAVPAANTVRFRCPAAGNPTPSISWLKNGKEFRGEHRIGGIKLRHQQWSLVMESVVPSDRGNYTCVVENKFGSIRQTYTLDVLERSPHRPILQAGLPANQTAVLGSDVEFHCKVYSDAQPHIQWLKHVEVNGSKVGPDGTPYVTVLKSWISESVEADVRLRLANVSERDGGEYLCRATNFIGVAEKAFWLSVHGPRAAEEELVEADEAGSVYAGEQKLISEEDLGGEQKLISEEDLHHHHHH

T4: human FGFR3b expressed with a C-terminal murine Fc tag (hFGFR3b.mFc) (human)
T4 construct: called dimeric; also called REGN3153; dimeric human FGFR3b
T4 chain: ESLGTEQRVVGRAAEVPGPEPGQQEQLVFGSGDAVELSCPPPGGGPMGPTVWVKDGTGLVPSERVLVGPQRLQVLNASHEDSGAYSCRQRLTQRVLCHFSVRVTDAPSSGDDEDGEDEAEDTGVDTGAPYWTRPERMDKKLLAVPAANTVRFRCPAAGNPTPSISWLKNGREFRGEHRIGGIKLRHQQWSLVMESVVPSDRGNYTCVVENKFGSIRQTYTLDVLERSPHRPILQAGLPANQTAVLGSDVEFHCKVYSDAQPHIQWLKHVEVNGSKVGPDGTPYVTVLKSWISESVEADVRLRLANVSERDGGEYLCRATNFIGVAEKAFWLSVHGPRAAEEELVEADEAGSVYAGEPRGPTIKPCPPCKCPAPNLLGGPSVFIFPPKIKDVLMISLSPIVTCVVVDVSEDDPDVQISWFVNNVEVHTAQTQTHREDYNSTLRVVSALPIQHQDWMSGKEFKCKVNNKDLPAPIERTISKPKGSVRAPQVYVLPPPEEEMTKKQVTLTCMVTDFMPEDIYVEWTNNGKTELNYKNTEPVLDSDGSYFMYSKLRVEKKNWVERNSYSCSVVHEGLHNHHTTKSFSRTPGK


Assays:
Experiment in all cases: SPR (Biacore), captured mAb, 25 C
[1] = molecular target: T1, murine FGFR3b expressed with a …
Method: (§1) The CM5 Biacore sensor surface was derivatized by amine coupling with a monoclonal mouse anti-human Fc monoclonal antibody (REGN2567). All Biacore binding studies were performed in a buffer composed of 0.01M HEPES pH 7.4, 0.15 M NaCl, 3 mM EDTA, 0.05% v/v Surfactant P20 (HBS-EP running buffer). […] Antibody-reagent association was monitored for 5 minutes while dissociation in HBS-EP running buffer was monitored for 10 minutes. At the end of each cycle, the anti-FGFR3 antibody capture surface was regenerated using a 10 sec injection of 20 mM phosphoric acid. All binding kinetics experiments were performed at 25° C.
(§2) The specific SPR-Biacore sensorgrams were obtained by a double referencing procedure. The double referencing was performed by first subtracting the signal of each injection over a reference surface (anti-hFc) from the signal over the experimental surface (anti-hFc-captured anti-FGFR3 antibodies) thereby removing contributions from refractive index changes. In addition, running buffer injections were performed to allow subtraction of the signal changes resulting from the dissociation of captured antibodies from the coupled anti-hFc surface. Kinetic association (kₐ) and dissociation (kd) rate constants were determined by fitting the real-time sensorgrams to a 1:1 binding model using Scrubber v2.0c curve fitting software.

[2] = molecular target: T5, human FGFR3c expressed with a C-terminal myc-myc-hexahistidine tag (hFGFR3c.mmH) (human, UniProt P22607 23-375)
T5 construct: monomeric; also called REGN3155; monomeric human FGFR3c
Method: as §1, §2

[3] = molecular target: T2, human FGFR3b expressed with a …
Method: as §1, §2

[4] = molecular target: T3, cynomolgus FGFR3b expressed with a …
Method: as §1, §2

[5] = molecular target: T4, human FGFR3b expressed with a …
Method: as §1, §2

t½ [1] [min]	t½ [2] [min]	t½ [3] [min]	t½ [4] [min]	koff [2] [s⁻¹]	kon [2] [M⁻¹ s⁻¹]	koff [3] [s⁻¹]	kon [3] [M⁻¹ s⁻¹]	t½ [5] [min]	Binder
9.5	1.8	2.3	1.4						H4H30105P2 (antibody, human IgG4 S228P, kappa, V domains shown) VH: EVQLVQSGAEVKKPGESLKISCKGSGYSFTSYWIAWVRQMPGKGLEWMGIIYPGDSDTRYSPSFQGQVTMSADKSIRIAYLQWSSLKASDTAMYYCARLDYSGSWFDYWGQGTLVTVSS VL: not shown
	8.77	18.8		0.00132	544000	0.000616	883000		anti-FGFR3-hIgG1 comparator (REGN6331) (antibody, V domains shown, Human IgG1 comparator; also called COMP6331; anti-FGFR3 comparator antibody) VH: EVQLVESGGGLVQPGGSLRLSCAASGFTFTSTGISWVRQAPGKGLEWVGRIYPTSGSTNYADSVKGRFTISADTSKNTAYLQMNSLRAEDTAVYYCARTYGIYDLYVDYTEYVMDYWGQGTLVTVSS VL: DIQMTQSPSSLSASVGDRVTITCRASQDVDTSLAWYKQKPGKAPKLLIYSASFLYSGVPSRFSGSGSGTDFTLTISSLQPEDFATYYCQQSTGHPQTFGQGTKVEIKR
			50.2						H4H30102P2 (antibody, human IgG4 S228P, kappa, V domains shown) VH: EVQLVESGGDLVQPGGSLRLSCAASGFTFSSYEMNWVRQAPGKGLEWVSYISNSGSTIYYADSVKGRFTISRDNAETSLYLQMNSLRAEDTAVYYCAREGWGAYCAGDCYSGFDIWGQGTMVTVSS VL: not shown
	1.6	1.8	1.3					87	H4H30117P2 (antibody, human IgG4 S228P, kappa, V domains shown) VH: QVQLVQSGAEVKKPGSSVKVSCKASGDTFSNYVIGWVRQAPGQGLEWMGGIIPIFGTTNYAQQFQGRVTITTDESTSTAYMELSSLRSEDTAVYYCARDGNYGDYFDYWGQGTLVTVSS VL: not shown
5.8		72.6	85.2						H4H30108P2 (antibody, human IgG4 S228P, kappa, V domains shown) VH: QVQLVQSGAEVKKPGASVKVSCKASGYTFNSYDVNWVRQATGQGLEWMGWMNPHSGNTGYAQKFQGRVTMTRDTSTSTSYMELSSLTSEDTAVYYCARGPFSLLSAEFFQHWGQGTLVTVSS VL: not shown
	2.5	2.3	2.6					117	H4H30095P2 (antibody, human IgG4 S228P, kappa, V domains shown) VH: QVQLVQSGVEVKKPGASVKVSCKASGYTFKFYGISWVRQAPGQGLEWMGWISVYNGKTKYAQKLQGRVTMTTDTSTSTAYMELRSLRSDDTAVYFCARDGDYESSGYPFDYWGQGTLVTVSS VL: not shown

More lines, now with the values behind:

Binder	t½ [1] [min]	t½ [2] [min]	t½ [3] [min]	t½ [4] [min]	koff [2] [s⁻¹]	kon [2] [M⁻¹ s⁻¹]	koff [3] [s⁻¹]	kon [3] [M⁻¹ s⁻¹]	t½ [5] [min]
H4H30063P (antibody, human IgG4 S228P, kappa, V domains shown, Tested as whole antibody; also called anti-FGFR3b antibody H4H30063P) VH: QVQLQESGPGLVKPSETLSLTCTVSGDSINSYFWSWIRQLPGKELEWIGHIYSSGSTRYNPSLQSRVTISIDTSKNQFSLKLSSVTAADTAVYYCARGASAVDYWGQGTLVTVSS VL: EIVLTQSPGTLSLSPGERATLSCRTSQSISSGYLAWYQQKPGQAPRLLIYGASRRATGIPDRFSGSGSGTDFTLTISRLEPEDFVVYYCQQYGSSPYTFGQGTKLEIKR	416		302	275					≥ 1160
H4H30061P (antibody, human IgG4 S228P, kappa, V domains shown) VH: EVQLVESGGGLAQPGGSLKLSCEASGFTFSDSAMHWVRQASGKGLEWVGRIRSKANSYATGYAASVKGRFTISRDDSKNMAFLEMNSLKTEDTAVYYCLRQTYGDPWGQGTLVTVSS VL: DVVMTQSPLSLSVTLGQPASISCRSSLSLVYSDGNNYLNWFQQRPGQSPRRLLYKVFNRDSGVPDRFSGSGSGTDFTLKISRVEAEDVGVYYCMQGTHWPWTFGQGTKVEIKR		146	132	118					≥ 1160
H4H30066P (antibody, human IgG4 S228P, kappa, V domains shown) VH: QVQLVQSGAEVKKPGASVKVSCKVSGYTLTELSMHWVRQAPGKGLEWMGGFDPEDGEIIYAQKFQGRVTMTEDTSTDTAYMDLSSLTSEDTAVYYCATEKQQLVRKYYFYYGLAVWGQGTTVTVSS VL: not shown	2.4		18.2	14.8					≥ 1160
H4H30045P (antibody, human IgG4 S228P, kappa, V domains shown) VH: QVQLVQSGAEVKKPGASVKVSCKTSGYRFVNYGFSWVRQAPGQGLEWMGWISPYNGNTNYIQNLQDRITMTTDTSTNTAYMELTNLRSDDTAVYYCATLTGVHFDYWGQGTLVTVSS VL: AIQMTQSPSSLSASVGDRVTITCRASQGIRNDLGWYQQKPGKAPNLLIFETSRLQSGVPSRFSGSGSGTDFTLTINSLQPEDFATYYCLQDYNYPWTFGQGTKVEIKR		1.5	1.9	1.3					71.8
H4H30071P (antibody, human IgG4 S228P, kappa, V domains shown) VH: QVQLQQSGPGLVKPSQTLSLTCAISGDSVSRNSAAWNWIRQSPSSGLEWLGRTYYRSKWFYDYAISVKSRITVNPDTSKNQFSLHLNSVTPEDTAVYYCARGYGGYEDYFDYWGQGTLVTVSS VL: DIQMTQSPSSVSASVGDRVTITCRASQGISSWLAWYQQKPGKAPKLLIYGASSLQSGVPSRFSGSGSGTDFTLTISSLQPEDFATYFCQQGSSFPYTFGQGTKLEIKR	6.9		390	520					≥ 1160
H4H30076P (antibody, human IgG4 S228P, kappa, V domains shown) VH: EVQLVESGGGLVQPGGSLRLSCAASGFTVSSNYMSWVRQAPGKGLEWVSIIYSGGHTYYSDSVKGRFTISRHNSKNTLYLQMNSLRGGDTAVYYCARGYTSGWYGFDFWGQGTLVTVSS VL: DIQMTQSPSSVSASVGDRVTITCRASQGISTWLAWYQQKPGKAPKLLIYAASSLQSGVPSRFSGTGSGTDFTLTISSLQPEDFATYYCQQTNSFPWTFGQGTKVEIKR	320		263	350					≥ 1160
H4H30089P2 (antibody, human IgG4 S228P, kappa, V domains shown) VH: EVQLVESGGGLVQPGGSLRLSCIVSGFIFSSYEMSWLRQAPGKGLEWISYISSSGRVIYYADSVKGRFTISRDSAKNSLYLEMNSLRAEDTAIYYCTRKWDSSGPFDFWGQGTLVTVSS VL: not shown	4.9		4.1	5.2					608
